Measurements: IntAct's records for PubMed 30017192

Assays:
kapca_human PRKACA = kapca_human PRKACA (UniProt P17612)
kpca_human PRKCA = kpca_human PRKCA (UniProt P17252)

Q: For “Serine/threonine-protein kinase pim-1 (Homo sapiens), P11309-2 K158R”, which “effect of a mutation on the interaction” value (kapca_human PRKACA) is on record?
A: Its value is “with no effect”.

Q: And the “effect of a mutation on the interaction” value (kpca_human PRKCA)?
A: The value was “with no effect”.
